What was measured:
SEC = target: the molecule itself; test: SEC
crystal structure = target: the molecule itself; test: crystal structure

B1: short-chain dehydrogenase/reductase-family oxidoreductase from Brucella ovis ATCC 25840 (enzyme)
chain: MELLKEKLVLVTGAGRGLGAAISSGAAEQGARVILVDIDGTAAKAQADALTAKGFVAEGHALDVTDRDAVAALADDILSRFGGLDVLVNNAGVAGRAAFDQPEAVEVWDRVIGVNLEGAFNVSHALVPALKAAKGNVVHLCSVAGFVSGGSTAGYVVSKGAIRSLTQVMARDLAPHGIRVNAVAPGIMMSEMAVAQLNRPGGTDWFMNRVMMKRIGETSEVVDPVVFLASPMASYITGTILPVDGGFLAA
notes: also called BoSDR; B. ovis SDR; not shown: His6, N-terminal, kept
stoichiometry N (SEC): ~2
stoichiometry N (crystal structure): 4
